Laboratory results published in patent publication US8252303B2, “Injectable depot compositions and uses thereof” (Durect Corporation, priority 2002, dated 2012).

Test: Preliminary stability of PDGF preformulations in the gel vehicle (SEC and rpHPLC)
Assay type: physicochemical
Settings: 5° C. for 1 day, Bulk PDGF as reference
Method: All lyophilized protein formulations as listed in Tables 8 and 9, were mixed into a gel vehicle with the composition of PLGA RG502/Benzyl Benzoate (BB)/benzyl alcohol (BA) of 40/45/15 with the loading of the protein formulation about 10 wt %. After being stored at 5° C. for 1 day, the mixtures were extracted with an organic solvent mixture of methylene chloride and acetone (ratio of 50/50) as described in the example 15 above. The purity of the PDGF-BB was analyzed by both reverse phase HPLC (rpHPLC) and size exclusion chromatography (SEC). In general, no distinguishable degradation of the PDGF-BB was found in the PDGF-BB formulation incorporated with the excipients as described in the Example 18 and mixed with the gel vehicle of the present invention.

Substance: Bulk PDGF: PDGF-BB bulk solution, i.e., aqueous solution of PDGF in acetate buffer
- % PDGF dimmer by SEC (Table 8 (succinate)): 0.73%
- % other peaks by rp-HPLC (Table 8 (succinate)): 0.0%
- % peak at RRT = 1.10 by rp-HPLC (Table 8 (succinate)): 1.2%
- % PDGF dimer by SEC (Table 9 (histidine)): 0.73%
- % other peaks by rp-HPLC (Table 9 (histidine)): 0.0%
- % peak at RRT = 1.10 by rp-HPLC (Table 9 (histidine)): 1.2%
